This assay concerns the target T1, untagged PGK1 (phosphoglycerate kinase 1), cleaved from His-SUMO-PGK1 (UniProt P00558 1-417).
T1 construct: phosphoglycerate kinase 1 (PGK1), full-length protein; also called His-tagged SUMO-PGK1; cleaved PGK1; source: E. coli BL21 (DE3), purified (Ni-NTA, SUMO protease cleavage, second Ni-NTA flow-through, Superdex200 gel filtration)
T1 sequence (looked up): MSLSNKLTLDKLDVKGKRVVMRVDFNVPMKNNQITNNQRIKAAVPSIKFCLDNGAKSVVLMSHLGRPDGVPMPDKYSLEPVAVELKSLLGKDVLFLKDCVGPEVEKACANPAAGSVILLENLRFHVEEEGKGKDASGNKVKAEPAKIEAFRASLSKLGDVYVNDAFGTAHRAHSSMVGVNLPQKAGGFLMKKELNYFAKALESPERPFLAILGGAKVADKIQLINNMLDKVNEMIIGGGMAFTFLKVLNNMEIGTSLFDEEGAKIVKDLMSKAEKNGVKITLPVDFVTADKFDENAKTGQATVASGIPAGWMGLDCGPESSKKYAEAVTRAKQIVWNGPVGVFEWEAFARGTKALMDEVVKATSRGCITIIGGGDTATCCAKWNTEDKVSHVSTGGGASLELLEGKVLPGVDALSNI
The assay can be described thus: MST; His-DJ-1 labelled with RED-tris-NTA (10 ul of 100 nM added to each sample), PGK1 titrated in a 16-step 1:1 serial dilution from a 152 uM stock; PBS-T buffer; 30 min at room temperature in the dark; Monolith NT.115, 40% LED, medium MST power. Particulars: both partners purified.

B1: His-tagged DJ-1 full-length protein (natural protein, UniProt Q99497 1-189, looked up)
chain: MASKRALVILAKGAEEMETVIPVDVMRRAGIKVTVAGLAGKDPVQCSRDVVICPDASLEDAKKEGPYDVVVLPGGNLGAQNLSESAAVKEILKEQENRKGLIAAICAGPTALLAHEIGFGSKVTTHPLAKDKMMNGGHYTYSENRVEKDGLILTSRGPGTSFEFALAIVEALNGKEVAAQVKAPLVLKD
notes: DJ-1 (product of the PARK7 gene), full-length protein; For MST the His tag was labelled non-covalently with the dye RED-tris-NTA; also called His-DJ-1; PARK7/DJ-1; source: E. coli BL21 (DE3), purified (Ni-NTA, Superdex200 gel filtration)
For orientation: Kd means the constant that tells how readily two partners part at equilibrium. Read a low Kd as tighter binding. On to B1, for which the Kd was about 15 µM.

(Values after publication PMC11338267, “Phosphoglycerate kinase is a central leverage point in Parkinson’s disease–driven neuronal metabolic deficits” (Science Advances, 2024).)
